In the supplement of paper PMC10567573:
± gives the standard deviation.

Experiment: protein stability index of a GFP-peptide fusion (GPS, HEK-293T) (PSI 1-6); higher = more stable
[1] = treatment: DMSO, c terminus: a fixed tail appended
[2] = treatment: MLN4924 1 uM, 8 h, c terminus: a fixed tail appended
[3] = treatment: DMSO, c terminus: native
[4] = treatment: MLN4924 1 uM, 8 h, c terminus: native
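Also: 24-mer peptide tiles fused after GFP, lentivirally expressed, FACS-sorted into six equal bins by GFP/DsRed ratio, decoded by Illumina sequencing, PSI is the read-weighted mean bin number.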

| Sequence | protein stability index [1] | protein stability index [2] | protein stability index [3] | protein stability index [4] |
| --- | --- | --- | --- | --- |
| SVDLMLGLPAQQVGPWLGQLQELL [RSAD1] | 2.38 ± 0.1 | 2.38 ± 0.45 | – | – |
| FKKGKNPTGLLALQQIADFMTTNV [ADD1] | 2 ± 0.23 | 2.61 ± 0.34 | – | – |
| FLMGRVLYFHHYFPAMLFSSMLTG [POMT2] | 3.35 ± 0.21 | 3.37 ± 0.43 | – | – |
| LLSLNSLLPESGIVADIELENVLD [TFE3] | 3.3 ± 0.49 | 3.3 ± 0.19 | – | – |
| DGDAPGSLLPAQVAACAQTVVSLA [CEBPD] | 4.26 ± 0.19 | 4.12 ± 0.39 | – | – |
| LKGTLVSTLKEVKPTVFIGVPQIW [ACSBG2] | 2.65 ± 0.2 | 3.5 ± 0.61 | – | – |
| SGLRMVPEHRAFGSPFGLEEPQWV [ZFYVE21] | 2.8 ± 0.14 | 2.93 ± 0.26 | – | – |
| IYVVGGFDGTAHLSSVEAYNIRTD [KLHL12] | 3.08 ± 0.28 | – | – | – |
| SRLRFLNLGRMIDWVPVESLLRPL [ZER1] | 2.16 ± 0.13 | 2.24 ± 0.25 | – | – |
| FTEASMMMSLTKLADKELVHMISW [ESR2] | 3.29 ± 0.78 | 3.48 ± 1.2 | – | – |
| EKDWGLEGYVWRGSQLEDQALRGL [ZSWIM9] | 2.97 ± 0.48 | 3.62 ± 0.58 | – | – |
| QGSLENMSKLLKRQNDILQVVSQG [CD207] | 3.39 ± 0.22 | 3.64 ± 0.22 | – | – |
| VPVLKPMDLMVEVSPRRIFANGHT [PPP2R2C] | 2.59 ± 0.48 | 2.75 ± 0.14 | – | – |
| YTEQELKPLTLEALGHLGNDDSAD [DLC1] | 5.43 ± 0.12 | 5.43 ± 0.16 | – | – |
| QPYTCSICRRNFSRRSSLLRHQKL [ZNF75A] | 3.43 ± 0.37 | 3.71 ± 0.35 | – | – |
| YADFGPLNLAMVYRYCCKLNKKLK [CDC14A] | 2.9 ± 0.58 | 2.56 ± 0.43 | – | – |
| NWVIPAISAVAVALMYRLYMAED [CYB5A] | – | – | 3.92 ± 0.12 | 4.02 ± 0.19 |
| GCEHSCVSSEDSFVCQCFEGYILR [MATN2] | 3.12 ± 0.38 | 3.27 ± 0.53 | – | – |
| LQDVRVNQSRCEMKTFVSPEAISP [TRIM15] | 4.01 ± 0.17 | 4.09 ± 0.29 | – | – |
| AHRAILVARCEVMAAMFNGNYMEA [RHOBTB3] | 2.54 ± 0.95 | 2.08 ± 0.97 | – | – |
| LAYLPFKLEKSIDSYYRLVIHRAL [PCDHGA10] | 2.25 ± 0.62 | 2.23 ± 0.81 | – | – |
| PCATVSVFPGARLLTIGDANGEIQ [CARM1] | 3.31 ± 0.38 | 3.28 ± 0.16 | – | – |

| Sequence | protein stability index [1] | protein stability index [2] | protein stability index [3] | protein stability index [4] |
| --- | --- | --- | --- | --- |
| GEGKLSKRLKHKDDSVMKATQQAR [C22orf31] | 4.64 ± 0.21 | 4.81 ± 0.22 | – | – |
| FLPVDTSNNNGRIKQLRSGGTPIR [PTPRD] | 3.33 ± 0.3 | 3.51 ± 0.063 | – | – |
| SSKAHTSRFISANLPCNKFKNRLV [PTPRD] | 2.58 ± 0.35 | 2.59 ± 0.26 | – | – |
| EQVRFLMKSYSFLREAVPGILRAR [SOAT2] | 1.85 ± 0.62 | 2.1 ± 0.51 | – | – |
| AVIQHRPSRQYATLDVYNPFETRE [SCAMP3] | 3.42 ± 0.23 | 3.39 ± 0.27 | – | – |
| GSDKCVFLKNTEVSSMECEKNLYW [CD69] | 3.06 ± 0.26 | 3.12 ± 0.36 | – | – |
| LEGAQAPLAVEEDASSSTSTSSSF [MAGEA10] | 5.66 ± 0.14 | 5.55 ± 0.2 | – | – |
| ASSASAFLTAPLLEFLLALYFLFA [CMTM3] | 2.34 ± 0.79 | 2.63 ± 0.88 | – | – |
| PDHQVPYGHDYPRAAYQQVIQPAL [TRAF3IP2] | 3.48 ± 0.29 | 3.56 ± 0.24 | – | – |
| EAFAASAVGSGERRGGGPVFPAPV [ZBTB22] | 3.93 ± 0.32 | 4.03 ± 0.28 | – | – |
| TSTGSAASSGSNSSASSEQGLLGR [SPRY1] | 5.07 ± 0.28 | 5.17 ± 0.099 | – | – |
| PVVSMDLDPQPITDEEEGLIWVVG [PTPRD] | 3.96 ± 0.29 | 4.29 ± 0.48 | – | – |
| PARDGVEASAEGPRAVFVLLEERR [TFE3] | 4.26 ± 0.27 | 4.23 ± 0.073 | – | – |
| EDFLLKKPIVPTDGKRVIVVFHCE [CDC25A] | 2.37 ± 0.55 | 2.25 ± 0.64 | – | – |
| ETVQTWIELLTGETWNPFKLQYQL [GOLPH3L] | 2.65 ± 0.6 | 2.74 ± 0.71 | – | – |
| MVILISIVIFCLETLPELKDDKDF [KCNA1] | 3.03 ± 0.71 | 2.72 ± 0.52 | – | – |
| KLFAHSSDLLSEFKKHDADKVGLI [PPEF2] | 2.63 ± 0.3 | 2.68 ± 0.38 | – | – |
| EVSSIQVRRKPQHGVCSQLLGNYR [SERPINB9P1] | 2.84 ± 0.38 | 2.94 ± 0.29 | – | – |
| IQSLTCEVDGLRGTNEALLRQLRE [PRPH] | 3.74 ± 0.4 | 3.96 ± 0.24 | – | – |
| ARLKKVLIVGAPIWFRVPYSIISL [PTPN9] | 3.32 ± 0.79 | 2.58 ± 1 | – | – |
| HVPELEMLGRLGYLNHVRAASPQD [MNAT1] | 3.44 ± 0.2 | 3.45 ± 0.45 | – | – |
| DRGLRGFPKNRVLEGVIDRYQQSK [TRIM9] | 3.98 ± 0.35 | 4.01 ± 0.29 | – | – |

| Sequence | protein stability index [1] | protein stability index [2] | protein stability index [3] | protein stability index [4] |
| --- | --- | --- | --- | --- |
| TGSPARLSLRQTGSPGMIYSTRYG [KCNAB2] | 3.15 ± 0.45 | 3.12 ± 0.45 | – | – |
| LENELDLKLVSFSKLCTSYSHSST [GOSR1] | 2.98 ± 0.13 | 2.93 ± 0.16 | – | – |
| HPNIITLHDIFENKTDVVLILELV [DAPK3] | 2.54 ± 0.14 | 2.34 ± 0.23 | – | – |
| DWMAAMFGGPFVESSTREVVFPYT [RHOBTB2] | 2.23 ± 0.3 | 2.04 ± 0.47 | – | – |
| LNGASVLPHKSIGESVPEPRIIM [GMPPB] | – | – | 3.65 ± 0.17 | 3.71 ± 0.14 |
| FTGSQPTAERITQLSAPHCKKLSL [ALDH8A1] | 2.89 ± 0.5 | 3.46 ± 0.35 | – | – |
| YSFYMLTCIDMDWKVLTWLRYTLW [HACD3] | 2.63 ± 0.85 | 2.65 ± 0.36 | – | – |
| EDGEDFNLGDALDSSNSMQTIQKT [KRT18] | 5.44 ± 0.29 | 5.41 ± 0.32 | – | – |
| KEISRKRRSIRYGREVELKPYIAA [PTPRD] | 3.27 ± 0.17 | 3.65 ± 0.44 | – | – |
| LQAPVPPDSVPSLQNMGLLLDKLA [PBXIP1] | 3.11 ± 0.44 | 2.86 ± 0.46 | – | – |
| ELTFSYIAFDGVVGSGGRRDSTAR [RTN2] | 3.17 ± 0.079 | 3.15 ± 0.28 | – | – |
| SLYLLLVSCPKSEVRAKFKFSLLN [SPOPL] | 2.56 ± 1.2 | 2.49 ± 0.74 | – | – |
| KQSLVVAVQDHGQPPLSATVTLTV [PCDHGA10] | 2.72 ± 0.59 | 2.68 ± 0.45 | – | – |
| EWVISTGHDKCVSWMCTRSGNMLG [WDFY1] | 2.09 ± 0.37 | 2.01 ± 0.41 | – | – |
| SMLVAGNDRVQTIITQLEDSRRVT [TRIM63] | 3.81 ± 0.077 | 3.72 ± 0.12 | – | – |
| PDFYKQSSPNLQVSSDGTLKYMEV [PCDHGC5] | 3.4 ± 0.16 | 3.39 ± 0.45 | – | – |
| RGGGAAGAGGGGSGAGGGSGGSGG [KLHDC10] | 5.2 ± 0.66 | 4.89 ± 0.48 | – | – |
| NCLPKHLLHSVNQRFGSNNTSGS [KLHDC2] | – | – | 2.69 ± 0.33 | 2.99 ± 0.28 |
| AGSSNLPAPERTMAGLSKEPNTLR [VENTX] | 4.48 ± 0.45 | 4.71 ± 0.47 | – | – |
| PRPNRLFLRQLRASHLGNELEGTE [C2CD2L] | 3.92 ± 0.15 | 4.05 ± 0.26 | – | – |
| FTLASSSDTRVGAPATGSGTPGPF [CHIT1] | 3.73 ± 0.19 | 3.84 ± 0.39 | – | – |
